Results from article PMC9695803.

Target: Human parvovirus B19 major capsid protein VP2 (human parvovirus B19)

Substance: Human parvovirus B19 minor capsid protein VP1 (from UniProt Q9PZT0 1-781) (natural protein)
- proportion of VP1 in the VP1/VP2 VLP: 5.11%
- proportion of VP1 in the VP1h/VP2 VLP: 25.4%
